The values below come from the Immune Epitope Database (IEDB).

In general, Kd refers to the concentration at which binding is half-saturated. One may read the IC50 as the concentration that gives 50% inhibition. The low end stands for greater potency in that assay, the high end for weaker potency in that assay.

Assay [1] deals with HLA-A*02:11. As to the kind of experiment: IEDB peptide-MHC binding, purified MHC/competitive/fluorescence; filed as Kd, often an IC50 or EC50 that approximates it; ≥ and ≤ were set here for values at or beyond the usual limits of such assays. As to conditions: source organism: Human immunodeficiency virus 1.
Assay [2] has as its target HLA-A*02:12. The assay is described as above.
Assay [3] addresses HLA-A*69:01. The description is as above. The note with it: source organism: Human immunodeficiency virus 1.
Assay [4] deals with HLA-B*39:01. The description is as above.
Assay [5] concerns the target HLA-A*02:16. The assay is described as above.
Assay [6] addresses HLA-A*02:01. Described as above.
Assay [7] has as its target HLA-A*02:19. The description is as above.
In assay [8] the target is HLA-A*02:02. The experiment in a line: IEDB peptide-MHC binding, purified MHC/competitive/radioactivity; filed as Kd, often an IC50 or EC50 that approximates it; ≥ and ≤ were set here for values at or beyond the usual limits of such assays. As to conditions: source organism: Human immunodeficiency virus type 1 (CLONE 12).
For assay [9], the target named is HLA-C*15:02. The experiment in a line: IEDB peptide-MHC binding, purified MHC/direct/fluorescence; filed as Kd, often an IC50 or EC50 that approximates it; ≥ and ≤ were set here for values at or beyond the usual limits of such assays.
Assay [10] addresses HLA-A*02:03. The experiment in a line: IEDB peptide-MHC binding, purified MHC/competitive/fluorescence; filed as Kd, often an IC50 or EC50 that approximates it; ≥ and ≤ were set here for values at or beyond the usual limits of such assays. The note with it: source organism: Vibrio vulnificus YJ016.
Assay [11] deals with HLA-B*46:01. The assay is described as above. The note with it: source organism: Vibrio vulnificus YJ016.
Assay [12] addresses HLA-B*27:03. Described as above. As to conditions: source organism: Vibrio vulnificus YJ016.
The target in assay [13] is HLA-A*68:02. The description is as above. As to conditions: source organism: Vibrio vulnificus YJ016.
For assay [14], the target named is HLA-B*15:01. Described as above. As to conditions: source organism: Vibrio vulnificus YJ016.
The target of assay [15] is HLA-A*03:01. The description is as above. The note with it: source organism: Vibrio vulnificus YJ016.
Assay [16] deals with HLA-A*26:01. Described as above. The note with it: source organism: Vibrio vulnificus YJ016.
Assay [17] concerns the target HLA-B*57:01. The description is as above. As to conditions: source organism: Vibrio vulnificus YJ016.
Assay [18] has as its target HLA-B*15:17. The experiment in a line: IEDB peptide-MHC binding, purified MHC/direct/fluorescence; filed as Kd, often an IC50 or EC50 that approximates it; ≥ and ≤ were set here for values at or beyond the usual limits of such assays.
The target in assay [19] is HLA-B*57:01. The assay is described as above.
Assay [20] concerns the target HLA-A*11:01. As to the kind of experiment: IEDB peptide-MHC binding, purified MHC/competitive/fluorescence; ≥ and ≤ were set here for values at or beyond the usual limits of such assays.
The target of assay [21] is HLA-B*15:01. The description is as above.
In assay [22] the target is HLA-A*03:01. The description is as above.
Assay [23] has as its target HLA-A*02:01. The assay is described as above.
In assay [24] the target is HLA-B*15:01. As to the kind of experiment: IEDB peptide-MHC binding, purified MHC/direct/fluorescence; filed as Kd, often an IC50 or EC50 that approximates it; ≥ and ≤ were set here for values at or beyond the usual limits of such assays.
The target of assay [25] is HLA-B*58:01. Described as above.
For assay [26], the target named is HLA-A*02:11. Described as above. As to conditions: source organism: Mycobacterium tuberculosis str. Haarlem.
Assay [27] deals with HLA-A*69:01. The assay is described as above. As to conditions: source organism: Mycobacterium tuberculosis.
Assay [28] addresses HLA-B*46:01. The assay is described as above. The note with it: source organism: Escherichia coli O157:H7.
For assay [29], the target named is HLA-B*40:01. The assay is described as above. As to conditions: source organism: Escherichia coli O157:H7.
The target of assay [30] is HLA-B*48:01. Described as above. The note with it: source organism: Escherichia coli O157:H7.
Assay [31] concerns the target HLA-A*01:01. The assay is described as above. As to conditions: source organism: Escherichia coli O157:H7.
The target of assay [32] is HLA-A*68:02. Described as above. As to conditions: source organism: Escherichia coli O157:H7.
Assay [33] has as its target HLA-A*11:01. The assay is described as above. The note with it: source organism: Escherichia coli O157:H7.
The target of assay [34] is HLA-B*18:01. Described as above. As to conditions: source organism: Escherichia coli O157:H7.
In assay [35] the target is HLA-A*03:01. The description is as above. As to conditions: source organism: Escherichia coli O157:H7.
Assay [36] deals with HLA-A*02:01. Described as above. As to conditions: source organism: Escherichia coli O157:H7.
In assay [37] the target is HLA-B*27:05. Described as above. The note with it: source organism: Escherichia coli O157:H7.
For assay [38], the target named is HLA-A*31:01. Described as above. As to conditions: source organism: Escherichia coli O157:H7.
The target of assay [39] is HLA-B*07:02. The description is as above. As to conditions: source organism: Escherichia coli O157:H7.
The mark [40] stands for this setting: source organism: Human immunodeficiency virus 1.
The mark [41] stands for this setting: source organism: Vibrio vulnificus YJ016.
The mark [42] stands for this setting: source organism: dengue virus type 3.
Setting [43] is: source organism: Vaccinia virus WR.
Setting [44] is: source organism: Zaire ebolavirus.
[45] abbreviates: source organism: Yersinia pestis.
Setting [46] is: source organism: Sudan ebolavirus.
The mark [47] stands for this setting: source organism: Escherichia coli O157:H7.

Take AIIRILQQL: the Kd in [1] was 0.00021 µM; in assay [2] (setting [40]), 0.011 µM; in assay [3] it was 0.578 µM; in assay [4] (setting [40]), not below 20 µM; in assay [5] (setting [40]) it was 0.00151 µM; in assay [6] (setting [40]) it was 0.0048 µM. Further, the Kd in assay [7] (setting [40]) was found to be 0.116 µM; in [8] it was 0.374 µM.
In [9] (source organism: Mycobacterium tuberculosis C), GLYEFTILV yielded a Kd not below 20 µM.
With IALPVAWLF, the Kd in [2] (setting [41]), in assay [10], in [11], in assay [12], in assay [13] and in assay [4] (setting [41]) was not below 20 µM throughout. In addition, the Kd in assay [14], in [15], in assay [5] (setting [41]), in assay [6] (setting [41]), in [7] (setting [41]) and in assay [16] was not below 20 µM each time. Moreover, in [17], the Kd is 0.0624 µM.
As to ICSAVPVHW, the Kd in assay [18] (setting [42]) amounted to 0.373 µM; in assay [19] (setting [42]), 0.417 µM.
On to ILNTIQFMH, for which the IC50 is 2.68 µM in assay [20] (setting [43]), not below 111 µM in assay [21] (setting [43]), 3.36 µM in assay [22] (setting [43]) and 5.12 µM in assay [23] (setting [43]).
As for ITAASLPKT, the IC50 worked out at 2.9 µM in assay [20] (setting [44]), 30.4 µM in [22] (setting [44]) and 4.9 µM in assay [23] (setting [44]).
With KIFLHFSIL, the Kd in assay [9] (source organism: Rickettsia sibirica 246) was 0.919 µM.
As for KMIDGIGRF, the Kd in assay [24] (source organism: H1N1 swine influenza virus (A/swine/Korea/S10/2004(H1N1))) is 0.194 µM; in assay [9] (source organism: Influenza A virus (A/81/HO)), not below 20 µM.
Turning to MAMPEYWQF, the Kd in assay [18] (setting [45]) was 0.0088 µM; in [25] (setting [45]), 0.0017 µM; in [9] (source organism: Yersinia pestis Nepal516) it was not below 20 µM; in assay [19] (setting [45]), 0.0237 µM.
On to MQISTIGIR, for which the IC50 in [20] (setting [46]) is 2.56 µM; in assay [21] (setting [46]), 26.5 µM; in [22] (setting [46]), not below 145 µM; in [23] (setting [46]), not below 117 µM.
For the sequence QGYSHGDIK, the figures for the IC50 in assay [20] (setting [43]) and in assay [22] (setting [43]) were 1.79 µM and 12.1 µM, respectively.
Turning to RMWEFLDRL, the dissociation constant (Kd) was not above 0.001 µM in assay [26] and 2.18 µM in [27].
With TIYTSGKRS, the IC50 in [22] (setting [44]) worked out at 37.4 µM.
With TVADVRHCL, in assay [9] (source organism: Vaccinia virus Copenhagen), the Kd came out at 0.495 µM.
Take VVFSTSDGK: the IC50 in assay [20] (setting [44]) is 1.03 µM; in assay [22] (setting [44]) it was 4.54 µM; in [23] (setting [44]), not below 387 µM.
Consider WLSVIAFGK, for which the Kd in assay [28], in assay [18] (setting [47]), in assay [29], in assay [30], in [31] and in assay [32] was not below 20 µM each time. Also, the Kd was 2.24 µM in assay [33]; not below 20 µM in assay [34]; not below 20 µM in assay [24] (setting [47]); 1.63 µM in [35]; not below 20 µM in [25] (setting [47]); not below 20 µM in assay [36]. The Kd in assay [19] (setting [47]), in [37], in [38] and in [39] was not below 20 µM throughout.
